From PMC6863704 (Protein Science : A Publication of the Protein Society, 2019) come the findings set out here.

The data set deals with the molecule itself. The data set can be described thus: NMR.

B1: p50 dimerization domain of NFκB1 (residues 241–351), long construct with non-native N-terminal extension (domain or fragment, mouse)
chain: VGTGSNDDDDKAPNASNLKIVRMDRTAGCVTGGEEIYLLCDKVQKDDIQIRFYEEEENGGVWEGFGDFSPTDVHRQFAIVFKTPKYKDVNITKPASVFVQLRRKSDLETSEPKPFLYYPEI
For orientation: stoichiometry N means the number of molecules, sites or subunits per partner or assembly. Regarding B1, the “stoichiometry N” value was 2.
